Experimental data from paper PMC8956199, “The mismatched nucleotides encoded in vaccinia virus flip-and-flop hairpin telomeres serve an essential role in virion maturation”.

Experiments:
[1] = target: T1, I1 telomere-binding protein (UniProt P16714 1-312); assay: EMSA, competition; 700 ng poly d(IC), 0-300 ng unlabeled S hairpin; reference; details: protein: recombinant; tags: His6 (pET151/D-TOPO vector); label: 3' fill-in with Alexa Fluor 647-aha-dUTP (Results say Cy5-dUTP)
T1 sequence: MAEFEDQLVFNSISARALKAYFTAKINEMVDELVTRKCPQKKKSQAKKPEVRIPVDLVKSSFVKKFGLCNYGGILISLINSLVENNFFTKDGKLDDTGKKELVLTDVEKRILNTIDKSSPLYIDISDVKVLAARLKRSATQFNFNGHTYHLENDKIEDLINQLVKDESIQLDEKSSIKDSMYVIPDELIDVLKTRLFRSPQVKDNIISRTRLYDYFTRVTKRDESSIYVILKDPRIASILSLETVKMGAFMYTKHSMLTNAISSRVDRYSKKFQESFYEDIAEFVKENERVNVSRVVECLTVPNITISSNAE

[2] = target: T1, I1 telomere-binding protein; assay: EMSA, competition; 700 ng poly d(IC), 0-300 ng unlabeled S hairpin; behaved much like S; details: protein: recombinant; tags: His6 (pET151/D-TOPO vector); label: 3' fill-in with Alexa Fluor 647-aha-dUTP (Results say Cy5-dUTP)

B1: S hairpin (VACV WR telomere, wild type) (structured_DNA)
DNA: ACATTTTTTTCTAGACACTAAATAAAATATTTAAAATATAATATTAATGTACTAAAACTTATATATTATTAATTTATCTAACTAAAGTTAGTAAATTATATATATAATTTTATAATTAATTTAATTTTACTAATTTTATTTAGTGTCTAGAAAAAAA
modifications: 5' phosphate
- binding result [1]: binds

B2: SΔ1–3 hairpin (structured_DNA)
DNA: ACATTTTTTTCTAGACACTAAATAAAATATTTAAAATATAATATTAATGTACTAAAATTATATATTAATTTACTAACTAAAGTTAGTAAATTAATATATAATTTTATAATTAATTTAATTTTACTAATTTTATTTAGTGTCTAGAAAAAAA
modifications: 5' phosphate
- binding result [2]: binds
